Paper PMC6776665, “A tri-ionic anchor mechanism drives Ube2N-specific recruitment and K63-chain ubiquitination in TRIM ligases” (Nature Communications, 2019)

Legend:
[1] = biological target: T1, ubiquitin (WT) (UniProt P0CG48 1-76); test: crystal structure; T21-R with Ube2N^C87K/K92A~Ub, 2.8 Å, space group P1, two complexes in the asymmetric unit (2xT21-R, 2xUbe2N~Ub); conditions: both partners purified
T1 construct: WT ubiquitin, the cut product of the ubiquitin precursor (G76 printed as the residue linked to Ube2N); In the rows of the crystal structure it is the ubiquitin moiety of the conjugate m8, linked by G76 to Ube2N K87; source: E. coli Rosetta 2 DE3, purified (perchloric acid precipitation, cation exchange, SEC)

[2] = biological target: the molecule itself; test: as above

binding result [1]: binds
B1: TRIM21-RING (residue 1-85) (domain or fragment)
chain: GSHMASAARLTMMWEEVTCPICLDPFVEPVSIECGHSFCQECISQVGKGGGSVCPVCRQRFLLKNLRPNRQLANMVNNLKEISQEARE
notes: tripeptide scar left at the N-terminus after cleavage of the GST tag; TRIM21 RING domain (T21-R), residues 1-85; Wild-type RING; a RING dimer in the crystal (2xT21-R and 2xUbe2N~Ub in the asymmetric unit); also called T21-R; TRIM21 RING domain; source: E. coli C41 DE3 or BL21 DE3, purified (glutathione sepharose, tag cleaved on beads, SEC); not shown: GST, N-terminal, cleaved
binding result [2]: binds
